± gives the half width of the 95% confidence interval.
Assay: folding stability dG unfold (combined trypsin and chymotrypsin); higher = more stable
Method in brief: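 Designed mini-proteins with no cysteine and under 80 residues were kept only if AlphaFold2 dimer inter-PAE was above 15. In a PA-tagged cDNA display construct, they were digested with trypsin and chymotrypsin and then sequenced. K50 was inferred by Bayesian fitting of counts, and unfolding free energy was derived per protease or combined against a sequence-predicted unfolded-state K50 and a shared folded-state K50.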

Q: With “SAGGKLPKGAKIVSVEFDKETKEIRIKVEFYDKNGKLIKTIEKTIKIKPKPKLSEEEKKKLEEEKKKSAGGS [r16_697_TrROS_Hall]” as the sequence, how does the “folding stability dG unfold” value read?
A: Its value is 1.65 ± 0.23 kcal/mol.

Q: With “SAGGSAGGSMKTEVTVDEEGKYTVTVTPPDGSTVNLVVPPGDPAAAVAAAKAAGLEVEDIKAASAGGSAGGS [r12_891_JUSTAS]” as the sequence, how does the “folding stability dG unfold” value read?
A: Its value is -0.21 ± 0.27 kcal/mol.

Q: Which “folding stability dG unfold” value does the source give for “SAGGSAGGSKAEIVSVEKLPEEGELYLVKIRVDGKTYTIAVPVGSTVTIDVPPGAEIEIRKLPSAGGSAGGS [r12_373_TrROS_Hall]” here?
A: Its value is 2.32 ± 0.046 kcal/mol.

Q: For “SAGGTIEITFMVRTPEEAEDMADMIARMLAREHGMKVTIDDVEVHEYKDPEDGQEYYMVEFRIEIKPSAGGS [r8_171_TrROS]”, which “folding stability dG unfold” value is on record?
A: Its value is 3.88 ± 0.11 kcal/mol.

Q: Which “folding stability dG unfold” value does the source give for “SAGIKIEVEPSPGNGWYRIRIENPDLRKKLNEKFPDLKEITFPFKNPEDMPWEEMREHAIDQIKEFLPSAGG [r19_298_TrROS]” here?
A: The value was 0.64 ± 0.24 kcal/mol.

Q: For “SAGGSAGGSAGMIVVKSKEEIEALKKAGYEIEVKEVTVYDPKTGKKKDKFLVIEIKPKKKSAGGSAGGSAGG [r11_168_TrROS_Hall]”, which “folding stability dG unfold” value is on record?
A: Its value is 1.29 ± 0.17 kcal/mol.

Q: For “SAGGSANPKPKIEIDKIYRMPDGQVHIPIEMERYDDDGQKETYPMDVTFNVPEGKPLTPNAIKDLISAGGSA [r15_836_TrROS]”, which “folding stability dG unfold” value is on record?
A: Its value is -0.693 ± 0.15 kcal/mol.

Q: For “SAGGGMMTVTVTRVEREKPAGDEYLEKVLVTLPDSTLEATLTLKEKEEADKPPSVTVVPLEAVLALLASAGG [r13_540_JUSTAS]”, which “folding stability dG unfold” value is on record?
A: The value was 0.57 ± 0.11 kcal/mol.

Q: Which “folding stability dG unfold” value does the source give for “SAGGSAGGSAGGSSMVFELDGVRIVVTEDEVVFYPPETGKPVVLPMSNPEVQELIKELVSAGGSAGGSAGGS [r4_353_TrMRF]” here?
A: The value was 1.82 ± 0.083 kcal/mol.

Q: For “SAGGSAKTIEITLEDGSKVTITEVKDGYIRIYVSEEAKEALKKLGLEEVDEENNVITLPLEKLKKLSAGGSA [r15_984_TrROS_Hall]”, which “folding stability dG unfold” value is on record?
A: Its value is 1.62 ± 0.1 kcal/mol.

Q: Which “folding stability dG unfold” value does the source give for “SAGGSAGGSGLTKELAKKFNVTAIEEFENGLVKILTKPPIKGNPYLAIIDPKNKKVYIIPLNPSAGGSAGGS [r12_944_TrMRF]” here?
A: The value was 1.29 ± 0.071 kcal/mol.

Q: For “SAGGSAGQKIQIERVQWNPEEGYFFIRIRYPGNGREIEHHIRLDNIEIELPPGAKITDIEIYPLPNSAGGSA [r15_959_TrROS]”, which “folding stability dG unfold” value is on record?
A: Its value is 1.96 ± 0.13 kcal/mol.

Q: With “SVVRLPNGEWFEVDGRLVRVTVDEETGEIVDVEVYEVTVEEPPPPPPPLEVTVTVEPDAPPGATITITVTSA [r9_90_TrROS_Hall]” as the sequence, how does the “folding stability dG unfold” value read?
A: The value was 1.5 ± 0.27 kcal/mol.

Q: With “SAGGMPTYTITITSPETGELKELPPNISQTFDPNNVTYYTFTSEEEAKEAIKLIAPQNGWKVTITSSSAGGS [r8_131_JUSTAS]” as the sequence, how does the “folding stability dG unfold” value read?
A: Its value is 0.89 ± 0.35 kcal/mol.

Q: Which “folding stability dG unfold” value does the source give for “SLPYTPSTAELTLTLPGGEVKVKANVYTLPDGSTITIATFPDGSVAVYDPSLGRLVLYDPSTGKPIAVLGSA [r9_970_TrMRF]” here?
A: The value was 2.32 ± 0.028 kcal/mol.

Q: Which “folding stability dG unfold” value does the source give for “SAGGMLLVEAPDGTTVEVTPEQAADLTPGAVVRHPSGDVWTYNPANDETVRIPWVSPAEVERAVAELSSAGG [r13_962_JUSTAS]” here?
A: The value was -0.132 ± 0.043 kcal/mol.

Q: With “SAGGSAGGSAYIPAEEIAEEVAAVLPPDEVALFPLPEKPLVVLVVREEDGVPRVLVLPPELASAGGSAGGSA [r18_61_TrMRF]” as the sequence, how does the “folding stability dG unfold” value read?
A: The value was 0.261 ± 0.082 kcal/mol.

Q: Which “folding stability dG unfold” value does the source give for “SAGGEKEEIIKKLSKYPKNYRVLLKSPDGTLYEYSSPEEVIKMPLTLPNGKEVIIVKISPEKSPKLLSAGGS [r16_680_JUSTAS]” here?
A: The value was 0.758 ± 0.099 kcal/mol.

Q: With “SAGGSAGGSAGGMIVLKDPDPARLEARAEELRAELEAAGRELPPDVEIEVLEAEPDPALLSAGGSAGGSAGG [r7_965_JUSTAS]” as the sequence, how does the “folding stability dG unfold” value read?
A: The value was -0.279 ± 0.29 kcal/mol.

Q: With “SAGGSAMKIVEKKTVTLTLPDGREVTVTLTKVEVDGETYYVLTVTDKDTGKTYTFVFKPGQSLEDLSAGGSA [r15_75_TrROS_Hall]” as the sequence, how does the “folding stability dG unfold” value read?
A: The value was 4.39 ± 0.2 kcal/mol.

Q: With “SAGGSAGGFKIRPIGVDDNYIVFRFRPDDPEALKKLGFKITGVEESGGSVEIIFRMPPEAKDLISAGGSAGG [r6_109_TrROS]” as the sequence, how does the “folding stability dG unfold” value read?
A: The value was 0.584 ± 0.12 kcal/mol.

Q: Which “folding stability dG unfold” value does the source give for “SAGGSAPVKLVVVYDEKTGEYRILAETPEGPVVFPFPRELFENIPLEDIAKLLNLEITEAVIVPNPSAGGSA [r15_801_TrMRF]” here?
A: The value was 3.38 ± 0.13 kcal/mol.

Q: Which “folding stability dG unfold” value does the source give for “SAGGSAGMTVTKTFTLPGYKVELTTHPGLPPDAPVTIEVTLTPPDGSVVKSTRTVLARPDDPSVLLSAGGSA [r15_10_JUSTAS]” here?
A: The value was 2.46 ± 0.16 kcal/mol.

Q: For “SAGGSAGGSSPDNKPVPPRFMIHVEIEPIKIPPEMREAAKDDPDNIDEIYVITIDVYFVGDDFSAGGSAGGS [r12_196_TrROS]”, which “folding stability dG unfold” value is on record?
A: The value was 2.58 ± 0.074 kcal/mol.

Q: For “SAGGSAGGSKKVTIVLSKEELRELFENLTPEQIAELLKKKFPKIKRVEVKEVDGKLVIEVEVESAGGSAGGS [r12_590_TrROS_Hall]”, which “folding stability dG unfold” value is on record?
A: Its value is 3.43 ± 0.17 kcal/mol.

Q: With “DYRVVIEDLELVPAPPGTRISMPAWVDHDGVRYGEVESYVDPETGTVTLRLLVEPDGEPRELTLTLPVPPES [r1_47_TrMRF]” as the sequence, how does the “folding stability dG unfold” value read?
A: The value was 0.625 ± 0.061 kcal/mol.

Q: For “SAGGSAGGSAGSMQTEVTFERGPGRLTTTTTTKFPDNRWSTTTSTSPVPARPPLPPAPVLLSAGGSAGGSAG [r3_68_JUSTAS]”, which “folding stability dG unfold” value is on record?
A: Its value is -0.416 ± 0.22 kcal/mol.

Q: Which “folding stability dG unfold” value does the source give for “SFFVEFGIEHNPENNYIHINFRIYEPDPNGQWRPSSSIPITIPIKIPPPPVPKIEVPEGAKDPEDAADALSA [r9_888_TrROS]” here?
A: Its value is 3.75 ± 0.68 kcal/mol.

Q: Which “folding stability dG unfold” value does the source give for “SMPEPLVLRVRVRDPENPEPVLEFELVIPPDGGVLVLARHPDRVEVREMPLEEAIDLLLSLPFEIEEVEGSA [r9_470_TrMRF]” here?
A: Its value is 3.14 ± 0.14 kcal/mol.

Q: With “SAGGSAGGPEIRITEARRDPNGMFTFIVEIPPEDLDNIKPGEEIEITFNGQEFNFNVQIIPADDSAGGSAGG [r6_373_TrROS]” as the sequence, how does the “folding stability dG unfold” value read?
A: Its value is 0.716 ± 0.29 kcal/mol.

Q: Which “folding stability dG unfold” value does the source give for “SAGGSAGGSMKIRIERTPDKLTIMIPPDNPDKIKNIIDNFGYPITDVKVTQNPPGMHMIEIPLSAGGSAGGS [r12_493_TrROS]” here?
A: Its value is 1.51 ± 0.19 kcal/mol.

Q: For “SAMPLLVKVTFYPKDPVTGIPSEEIEEKEVPDIEEAIKEVKKKLPKDNSAKIEVLDENGKLLKTIDLNLSAG [r14_234_JUSTAS]”, which “folding stability dG unfold” value is on record?
A: Its value is 0.845 ± 0.12 kcal/mol.
